The source of these data is article PMC5829831, “Structural Basis for DNA Recognition by the Two-Component Response Regulator RcsB” (mBio, 2018).

Data set [1] deals with the molecule itself. Nature of the data set: SEC-MALS; RcsB in the presence of the 22-bp DNA duplex DNA22, with and without CPh; RcsB and DNA 1 mg/ml; Superdex 75 10/300 GL; 10 mM Tris-HCl pH 8.3, 150 mM NaCl, 0.5 mM TCEP; 22°C.
The target in data set [2] is T1, RcsB (Escherichia coli str. K-12 substr. …, UniProt P0DMC7 1-216).
T1 sequence: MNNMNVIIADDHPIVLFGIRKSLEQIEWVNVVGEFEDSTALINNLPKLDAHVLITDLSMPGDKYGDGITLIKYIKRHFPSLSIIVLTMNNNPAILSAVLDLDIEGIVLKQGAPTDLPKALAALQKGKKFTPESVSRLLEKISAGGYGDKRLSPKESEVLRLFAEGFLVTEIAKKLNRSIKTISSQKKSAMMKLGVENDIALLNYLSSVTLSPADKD
The data set is described as follows: SPR; no CPh; EMSA: 10 mM Tris pH 7.5, 40 mM KCl, 1 mM DTT, 10 mM MgCl2, 5% glycerol, 0.1 ug/ul BSA, room temp; SPR: 10 mM Tris-HCl pH 8.3, 150 mM NaCl, 0.5 mM TCEP, 25 C. Particulars: protein: recombinant; tags: N-terminal 6xHis (pCA24n, ASKA clone); chain copies: 2; label: biotin (SPR); blunt.

The target of data set [3] is T1, RcsB. Nature of the data set: X-ray crystallography; unphosphorylated, 3.37 A; tetramer on two DNAs; EMSA: 10 mM Tris pH 7.5, 40 mM KCl, 1 mM DTT, 10 mM MgCl2, 5% glycerol, 0.1 ug/ul BSA, room temp; SPR: 10 mM Tris-HCl pH 8.3, 150 mM NaCl, 0.5 mM TCEP, 25 C. Particulars: protein: recombinant; tags: N-terminal 6xHis (pCA24n, ASKA clone); chain copies: 2; blunt.

B1: RcsB, two-component response regulator of the Rcs phosphorelay system (natural protein, E. coli, UniProt P0DMC7 1-216, looked up)
chain: MNNMNVIIADDHPIVLFGIRKSLEQIEWVNVVGEFEDSTALINNLPKLDAHVLITDLSMPGDKYGDGITLIKYIKRHFPSLSIIVLTMNNNPAILSAVLDLDIEGIVLKQGAPTDLPKALAALQKGKKFTPESVSRLLEKISAGGYGDKRLSPKESEVLRLFAEGFLVTEIAKKLNRSIKTISSQKKSAMMKLGVENDIALLNYLSSVTLSPADKD
notes: RcsB from Escherichia coli, full length, REC domain, linker and HTH domain; theoretical mass of the monomer 24 kDa; In some samples carbamoyl phosphate (CPh) and MgCl2 were added to phosphorylate D56; also called RcsB* (in the presence of phosphodonor); unphosphorylated RcsB; source: purified RcsB
In the case of B1, in data set [1], the stoichiometry N – broadly, a count of units in the complex or per binding partner – was 2.

B2: DNA22, biotinylated (dsDNA)
DNA 1: GATTTAGGAAAAATCTTAGATA
DNA 2: TATCTAAGATTTTTCCTAAATC
With B2, the dissociation constant (Kd) – broadly, a measure of binding affinity in units of concentration – with RcsB [2] was around 5.34 µM.

B3: DNA18 (flhDC RcsAB box) (dsDNA)
DNA 1: TTTAGGAAAAATCTTAGA
DNA 2: TCTAAGATTTTTCCTAAA
Regarding B3, the binding result with RcsB [3] is “binds”.
